Measurements from publication PMC8099640, “Collagen IV^α345 dysfunction in glomerular basement membrane diseases. III. A functional framework for α345 hexamer assembly” (The Journal of Biological Chemistry, 2021).

Legend:
[1] = molecular target: recombinant α345 miniprotomer (human) (UniProt Q01955); assay: atomic force microscopy; miniprotomer 1 to 2 μg/ml deposited on mica from buffer with chloride, imaged dry, AC tapping mode in air
[2] = molecular target: the molecule itself; assay: SEC; NC1 monomers alone or in equimolar mixture, 2 mg/ml in 25-mM Tris acetic acid buffer pH 7.5, NaCl added (150 mM), 24 h at 37 °C; Superdex 200 Increase 10/300GL in TBS; hexamer peak blotted with α3, α4 and α5 NC1-specific mAbs

Chain of recombinant α345 miniprotomer (Q01955 29-1670): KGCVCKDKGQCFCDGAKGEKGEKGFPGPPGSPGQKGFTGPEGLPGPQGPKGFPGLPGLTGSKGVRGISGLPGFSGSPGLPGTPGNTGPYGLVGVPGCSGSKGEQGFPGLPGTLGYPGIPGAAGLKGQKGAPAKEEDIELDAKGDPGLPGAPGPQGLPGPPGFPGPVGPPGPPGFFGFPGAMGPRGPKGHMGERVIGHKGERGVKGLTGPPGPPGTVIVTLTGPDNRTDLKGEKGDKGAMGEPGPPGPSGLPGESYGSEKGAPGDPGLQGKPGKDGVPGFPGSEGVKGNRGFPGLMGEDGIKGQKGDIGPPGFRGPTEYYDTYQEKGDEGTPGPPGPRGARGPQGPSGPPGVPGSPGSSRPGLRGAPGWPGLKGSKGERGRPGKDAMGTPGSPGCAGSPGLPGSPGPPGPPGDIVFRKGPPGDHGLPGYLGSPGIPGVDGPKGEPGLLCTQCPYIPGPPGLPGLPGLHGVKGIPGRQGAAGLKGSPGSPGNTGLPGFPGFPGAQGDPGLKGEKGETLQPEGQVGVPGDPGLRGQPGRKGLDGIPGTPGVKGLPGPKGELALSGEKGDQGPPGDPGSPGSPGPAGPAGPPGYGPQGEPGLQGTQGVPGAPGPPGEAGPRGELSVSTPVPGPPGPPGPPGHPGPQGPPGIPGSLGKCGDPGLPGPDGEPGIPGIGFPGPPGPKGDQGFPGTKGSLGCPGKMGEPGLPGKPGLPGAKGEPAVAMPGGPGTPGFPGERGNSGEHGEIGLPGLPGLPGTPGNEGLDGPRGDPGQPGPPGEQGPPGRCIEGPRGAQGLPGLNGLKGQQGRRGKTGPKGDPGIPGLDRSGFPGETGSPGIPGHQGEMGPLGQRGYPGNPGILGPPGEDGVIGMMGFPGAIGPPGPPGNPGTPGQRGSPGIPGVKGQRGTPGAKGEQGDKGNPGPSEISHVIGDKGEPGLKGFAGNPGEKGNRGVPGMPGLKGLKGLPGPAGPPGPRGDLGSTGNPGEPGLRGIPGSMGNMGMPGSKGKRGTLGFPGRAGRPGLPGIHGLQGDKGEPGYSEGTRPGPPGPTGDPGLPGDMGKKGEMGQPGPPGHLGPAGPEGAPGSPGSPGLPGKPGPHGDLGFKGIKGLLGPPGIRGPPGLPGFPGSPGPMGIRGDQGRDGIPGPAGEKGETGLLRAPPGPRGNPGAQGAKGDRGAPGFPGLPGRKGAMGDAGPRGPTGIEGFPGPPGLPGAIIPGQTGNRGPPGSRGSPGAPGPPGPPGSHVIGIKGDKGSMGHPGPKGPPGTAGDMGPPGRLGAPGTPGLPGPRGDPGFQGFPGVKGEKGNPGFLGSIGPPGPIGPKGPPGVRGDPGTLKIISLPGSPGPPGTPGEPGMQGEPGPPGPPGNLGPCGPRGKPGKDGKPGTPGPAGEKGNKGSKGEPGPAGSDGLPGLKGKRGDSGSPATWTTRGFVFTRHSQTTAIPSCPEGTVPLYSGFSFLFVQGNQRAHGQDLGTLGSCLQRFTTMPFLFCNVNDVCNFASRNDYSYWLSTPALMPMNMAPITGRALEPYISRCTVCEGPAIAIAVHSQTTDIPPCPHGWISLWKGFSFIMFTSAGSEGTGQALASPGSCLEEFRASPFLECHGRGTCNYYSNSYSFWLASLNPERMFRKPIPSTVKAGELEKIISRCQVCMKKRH
Chain of recombinant α345 miniprotomer (P53420 39-1690): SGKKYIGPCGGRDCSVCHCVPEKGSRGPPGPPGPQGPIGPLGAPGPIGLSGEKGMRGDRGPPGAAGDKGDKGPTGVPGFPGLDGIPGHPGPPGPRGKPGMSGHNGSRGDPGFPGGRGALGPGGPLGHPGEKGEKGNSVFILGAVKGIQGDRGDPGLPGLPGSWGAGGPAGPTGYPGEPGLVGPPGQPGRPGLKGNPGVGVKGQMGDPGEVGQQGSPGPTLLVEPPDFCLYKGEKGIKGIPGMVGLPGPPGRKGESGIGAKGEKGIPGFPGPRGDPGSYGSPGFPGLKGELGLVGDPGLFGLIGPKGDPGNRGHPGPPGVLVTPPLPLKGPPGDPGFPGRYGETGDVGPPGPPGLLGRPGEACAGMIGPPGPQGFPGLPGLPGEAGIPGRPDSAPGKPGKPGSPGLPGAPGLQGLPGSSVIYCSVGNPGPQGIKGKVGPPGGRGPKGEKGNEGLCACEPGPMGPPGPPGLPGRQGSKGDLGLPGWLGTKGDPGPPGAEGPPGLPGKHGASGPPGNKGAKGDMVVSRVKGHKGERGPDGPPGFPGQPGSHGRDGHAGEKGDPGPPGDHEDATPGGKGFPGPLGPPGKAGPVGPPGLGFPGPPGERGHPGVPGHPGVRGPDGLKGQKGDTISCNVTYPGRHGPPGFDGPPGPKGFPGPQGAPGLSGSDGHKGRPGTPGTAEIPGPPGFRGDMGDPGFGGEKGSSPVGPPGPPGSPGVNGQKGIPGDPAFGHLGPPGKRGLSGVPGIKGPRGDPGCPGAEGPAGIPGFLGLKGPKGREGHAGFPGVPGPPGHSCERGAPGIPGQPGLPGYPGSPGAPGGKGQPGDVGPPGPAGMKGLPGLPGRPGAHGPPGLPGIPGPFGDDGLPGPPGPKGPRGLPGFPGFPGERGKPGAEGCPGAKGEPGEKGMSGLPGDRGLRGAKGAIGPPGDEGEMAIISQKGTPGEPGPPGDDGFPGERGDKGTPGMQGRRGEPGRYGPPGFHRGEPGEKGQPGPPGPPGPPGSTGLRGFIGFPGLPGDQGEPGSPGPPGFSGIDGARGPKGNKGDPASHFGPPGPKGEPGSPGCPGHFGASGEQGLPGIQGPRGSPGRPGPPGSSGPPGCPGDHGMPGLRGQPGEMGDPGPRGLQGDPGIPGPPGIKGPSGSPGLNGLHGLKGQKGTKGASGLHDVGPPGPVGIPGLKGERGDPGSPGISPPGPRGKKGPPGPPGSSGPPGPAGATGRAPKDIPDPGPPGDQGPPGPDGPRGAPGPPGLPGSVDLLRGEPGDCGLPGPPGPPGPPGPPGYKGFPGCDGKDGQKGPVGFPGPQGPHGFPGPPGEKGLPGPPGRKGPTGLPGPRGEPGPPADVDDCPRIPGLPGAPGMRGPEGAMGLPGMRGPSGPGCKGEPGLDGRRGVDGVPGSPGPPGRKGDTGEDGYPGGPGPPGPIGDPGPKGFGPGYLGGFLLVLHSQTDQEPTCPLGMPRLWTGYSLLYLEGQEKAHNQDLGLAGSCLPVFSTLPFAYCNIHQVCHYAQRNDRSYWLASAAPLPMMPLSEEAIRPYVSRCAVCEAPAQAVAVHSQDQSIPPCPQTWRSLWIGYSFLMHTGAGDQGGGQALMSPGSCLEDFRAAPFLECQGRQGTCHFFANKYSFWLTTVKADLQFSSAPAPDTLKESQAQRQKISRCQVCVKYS
Chain of recombinant α345 miniprotomer (P29400 27-1685): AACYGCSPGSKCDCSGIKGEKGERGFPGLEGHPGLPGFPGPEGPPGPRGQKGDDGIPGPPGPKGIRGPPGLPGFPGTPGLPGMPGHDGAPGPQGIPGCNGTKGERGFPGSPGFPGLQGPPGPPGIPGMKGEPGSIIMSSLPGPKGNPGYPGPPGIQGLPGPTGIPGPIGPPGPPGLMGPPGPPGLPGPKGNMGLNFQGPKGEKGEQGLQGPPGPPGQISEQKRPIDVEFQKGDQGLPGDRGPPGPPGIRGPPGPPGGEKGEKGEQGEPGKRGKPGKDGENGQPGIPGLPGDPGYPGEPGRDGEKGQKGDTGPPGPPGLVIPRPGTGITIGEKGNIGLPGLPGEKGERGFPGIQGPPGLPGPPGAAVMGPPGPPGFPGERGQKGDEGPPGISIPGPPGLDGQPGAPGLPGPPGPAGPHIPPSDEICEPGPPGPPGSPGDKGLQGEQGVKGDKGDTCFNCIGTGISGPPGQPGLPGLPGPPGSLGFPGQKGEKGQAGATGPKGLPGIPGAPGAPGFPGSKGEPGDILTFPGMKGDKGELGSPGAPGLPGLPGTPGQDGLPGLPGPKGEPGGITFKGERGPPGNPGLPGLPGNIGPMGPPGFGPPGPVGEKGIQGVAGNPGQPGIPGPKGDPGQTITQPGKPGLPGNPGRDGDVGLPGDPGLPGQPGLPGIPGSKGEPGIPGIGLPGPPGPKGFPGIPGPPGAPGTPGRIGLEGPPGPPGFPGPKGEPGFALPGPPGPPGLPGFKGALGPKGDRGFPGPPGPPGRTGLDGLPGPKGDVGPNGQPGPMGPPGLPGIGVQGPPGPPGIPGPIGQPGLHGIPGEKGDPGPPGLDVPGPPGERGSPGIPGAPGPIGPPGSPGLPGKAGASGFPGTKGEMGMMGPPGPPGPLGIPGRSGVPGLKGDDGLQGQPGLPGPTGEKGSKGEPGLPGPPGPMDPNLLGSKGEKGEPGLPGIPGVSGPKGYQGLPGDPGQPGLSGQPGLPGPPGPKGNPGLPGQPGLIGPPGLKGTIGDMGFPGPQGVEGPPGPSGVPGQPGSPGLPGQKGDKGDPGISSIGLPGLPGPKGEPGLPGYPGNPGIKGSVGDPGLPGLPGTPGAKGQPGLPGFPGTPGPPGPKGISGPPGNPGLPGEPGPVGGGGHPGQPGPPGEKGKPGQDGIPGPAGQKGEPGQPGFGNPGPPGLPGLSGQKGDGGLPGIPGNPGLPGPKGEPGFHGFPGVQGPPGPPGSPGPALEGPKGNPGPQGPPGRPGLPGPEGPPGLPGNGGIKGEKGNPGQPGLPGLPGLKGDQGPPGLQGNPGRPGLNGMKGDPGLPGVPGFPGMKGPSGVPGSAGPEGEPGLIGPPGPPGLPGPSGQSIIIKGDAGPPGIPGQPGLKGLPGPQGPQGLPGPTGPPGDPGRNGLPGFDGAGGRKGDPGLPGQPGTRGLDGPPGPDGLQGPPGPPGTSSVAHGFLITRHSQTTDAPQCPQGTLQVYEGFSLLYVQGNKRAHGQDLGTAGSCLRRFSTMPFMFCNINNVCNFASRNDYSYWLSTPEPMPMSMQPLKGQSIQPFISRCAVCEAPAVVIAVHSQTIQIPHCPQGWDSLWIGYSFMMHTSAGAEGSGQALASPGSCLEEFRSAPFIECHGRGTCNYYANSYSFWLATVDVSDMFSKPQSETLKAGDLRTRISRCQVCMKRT

Molecule | stoichiometry N [1] | stoichiometry N [2]
recombinant α345 miniprotomer (from UniProt Q01955 29-1670; P53420 39-1690; P29400 27-1685) (complex) | 2 | 
recombinant human collagen IV α5 NC1 monomer (domain or fragment, UniProt P29400 1461-1685, looked up, collagen IV α5 chain, NC1 domain, human; amplified by PCR from a human kidney cDNA library; Secreted by means of the BM-40 signal peptide of the vector (derivative of pRc-CMV)) GFLITRHSQTTDAPQCPQGTLQVYEGFSLLYVQGNKRAHGQDLGTAGSCLRRFSTMPFMFCNINNVCNFASRNDYSYWLSTPEPMPMSMQPLKGQSIQPFISRCAVCEAPAVVIAVHSQTIQIPHCPQGWDSLWIGYSFMMHTSAGAEGSGQALASPGSCLEEFRSAPFIECHGRGTCNYYANSYSFWLATVDVSDMFSKPQSETLKAGDLRTRISRCQVCMKRT |  | 6
